# Measured values: article PMC4635001, “Structural Characterisation of FabG from Yersinia pestis, a Key Component of Bacterial Fatty Acid Synthesis” (PLoS ONE, 2015)
# B1: Yersinia pestis FabG (ketoacyl-acyl carrier protein reductase) (enzyme)
# chain: MSFEGKIALVTGASRGIGRAIAELLVERGACVIGTATSEKGAEAISAYLGENGKGLMLNVVDPTSIDTVLATIRAEFGEVDILVNNAGITRDNLLMRMKDDEWQDIIDTNLTSVFRLSKAVMRAMMKKRFGRIITIGSVVGTMGNAGQVNYAAAKAGVIGFSKSLAREVASRGITVNVVAPGFIETDMTRTLTDDQRAGILAQVPANRLGDAKEIASAVAFLASDEASYISGETLHVNGGMYMI
# notes: also called YpFabG; YpFabG TMAO
# Target: the molecule itself
# Test: crystal structure
protein,measurement,value
B1,stoichiometry N,4
